Data published in patent EP2172481A1.

Molecular target: oocyst extract
Test: antigen binding analysis on oocyst extract; method not stated

B1: Di-kappa-body (protein)
chain: QVQLQQSGPELVKPGASVKMSCKASGYTFTVYIIHWLKQKPGQGLEWIGYINPYNDGTKYNEKFRGKATLTSDKSSSTAYMELSSLTSEDSAVYYCARFYYGSSSVFDYWGQGTTLTVSSGGSGGSDVVMTQTQKFMSTSVGDRVSVTCKASQNVGTNVAWYQQKPGQSPKALIYSASYRYSGVPDRFTGSGSGTDFTLTISNVQSEDLAEYFCQQYNSYPLTFGAGTKLELKRTVAAPSVFIFPPSDEQLKSGTASVVCLLNNFYPREAKVQWKVDNALQSGNSQESVTEQDSKDSTYSLSSTLTLSKADYEKHKVYACEVTHQGLSSPVTKSFNRGEC
Binder B1 has a Kd of 0.55 nM.
